Reference: publication PMC4638040

T1: Carboxy-terminus of Hsc70-interacting protein (CHIP), His-tagged, wild type, Q9UNE7
T1 chain: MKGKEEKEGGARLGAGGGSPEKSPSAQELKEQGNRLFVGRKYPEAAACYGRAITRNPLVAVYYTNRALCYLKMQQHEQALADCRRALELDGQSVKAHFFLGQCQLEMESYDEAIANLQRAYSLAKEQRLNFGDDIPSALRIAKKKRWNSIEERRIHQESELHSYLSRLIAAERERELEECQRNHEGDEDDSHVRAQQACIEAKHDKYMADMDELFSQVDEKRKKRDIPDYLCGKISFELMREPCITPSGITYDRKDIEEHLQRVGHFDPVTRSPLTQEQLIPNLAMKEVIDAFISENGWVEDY

T2: Carboxy-terminus of Hsc70-interacting protein (CHIP), untagged, K30A mutant (human), Q9UNE7
T2 chain: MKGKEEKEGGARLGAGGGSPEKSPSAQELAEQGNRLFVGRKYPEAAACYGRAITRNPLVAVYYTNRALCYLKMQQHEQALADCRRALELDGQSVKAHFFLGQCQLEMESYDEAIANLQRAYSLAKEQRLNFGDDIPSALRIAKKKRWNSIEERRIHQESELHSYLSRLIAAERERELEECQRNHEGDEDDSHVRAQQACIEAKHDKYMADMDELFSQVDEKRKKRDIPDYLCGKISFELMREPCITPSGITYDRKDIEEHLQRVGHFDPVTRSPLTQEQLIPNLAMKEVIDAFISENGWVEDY


How the values were obtained:
[1] = target: T1, Carboxy-terminus of Hsc70-interacting …; test: competition binding assay on microtitre wells (luminometer, anti-CHIP antibody); details: chain shown with the change; signal is His-CHIP wt remaining bound to immobilized GST-IRF-1 in the presence of 5 uM peptide (highest dose); lower signal = more competition by the peptide …; parent: est. 0.05; read off a plot
[2] = target: T2, Carboxy-terminus of Hsc70-interacting …; test: SEC + other: dynamic light scattering; purified CHIP-K30A; supplemental Fig. S2C, S2D (not shown); details: remark: other sources report otherwise

| Binder | response [1] | stoichiometry N [2] |
| --- | --- | --- |
| SGSGGAAAEEVD | 1.2 RLU |  |
| Carboxy-terminus of Hsc70-interacting protein (CHIP), untagged, K30A mutant, Q9UNE7 1-303 (enzyme) MKGKEEKEGGARLGAGGGSPEKSPSAQELAEQGNRLFVGRKYPEAAACYGRAITRNPLVAVYYTNRALCYLKMQQHEQALADCRRALELDGQSVKAHFFLGQCQLEMESYDEAIANLQRAYSLAKEQRLNFGDDIPSALRIAKKKRWNSIEERRIHQESELHSYLSRLIAAERERELEECQRNHEGDEDDSHVRAQQACIEAKHDKYMADMDELFSQVDEKRKKRDIPDYLCGKISFELMREPCITPSGITYDRKDIEEHLQRVGHFDPVTRSPLTQEQLIPNLAMKEVIDAFISENGWVEDY |  | 2 |
